This note sets out measurements from paper doi:10.1101/2022.02.02.478753.

The target in this assay is holoTvFDPF3, highly active Class F flavodiiron protein 3 from Trichomonas vaginalis (TVAG_121610) (Trichomonas vaginalis). Description: cryo-EM structure.

In the case of “holoTvFDPF3, highly active Class F flavodiiron protein 3 from Trichomonas vaginalis (TVAG_121610) (enzyme)”, the stoichiometry N (in general, a count of units in the complex or per binding partner) was 2.
